Assay results published in a protein production outcome set (Wang et al. 2014).

Assay: label from the status in PepcDB records

For “MSTETIEIFNNSDEWANQLKHALSKGENLALLHGLTPDILDRIYAYAFDYHEKGNITDAEIYYKFLCIYAFENHEYLKDFASVCQPKKKYQQAYDLYKLSYNYFPYDDYSVIYRMGQCQIGAKNIDNAMQCFYHIINNCEDDSVKSKAQAYIELLNDNSEDNGLEHHHHHH”, the protein production was “failed”.

For “MPDKKREVSLSHRLQEVASFVPKGARLLDVGSDHAYLPIYLLEQGLIDFAVAGEIIKGPYESAVANVSESELSGQIAVRLADGLAALNDNDDIDLITICGMGGRLIADILAAGSDKLNSVKQLILQPNNCEDDLRSWLVANDFMIKAEKMVKDRHKYYEILVVEKGKITLSDKDLRFGPFLRQERSSIFKERWRKELAKLELALTKVPAKKKADNMFLSTKIEQIKEVLYES”, the protein production was “not failed”.

With “SALIAALSVSGLPSNRFTFEGFLPAKPTARRDRLTHLAHEPRTLIFYEASHRIAECLTDLATIFGSMRIAVVARELTKIFETVLDGTLATLQTQVANDENQRKGEFVIIVQGAADQ” the protein production was “failed”.

For “LAELFEKAAAHLQGLIQVASREQLLYLYARYKQVKVGNCNTPKPSFFDFEGKQKWEAWKALGDSSPSQAMQEYIAVVKKLDPGWNPQIPEKKGKEA”, the protein production was “not failed”.

For “ARQVTPGQVMVASTVAKLATIIDGEEDSTQRMGFETILPLREGNGPTLFCFHPASGFAWQFSVLSRYLDPQWSIIGIQSPRPHGPMQTAANLDEVCEAHLATLLEQQPHGPYYLLGYSLGGTLAQGIAARLRARGEQVAFLGLLDTWPPETQNWQEKEANGLDPEVLAEINREREAFLAAQQGSTSTELFTTIEGNYADAVRLLTTAHSVPFDGKATLFVAERTLQEGMTPEQAWAPWIAELDIYRQDCAHVDIISPEYFKEIGPLINTQINN”, the protein production was “failed”.

For “MSSSRSSWNTRAETGADVPVIRDIVRAAFPTPEEAALVDALRADAGAWIEGLSLVAVDDSDRPVGHALLTRCHIGDSPALCLAPVAVRPEHQNSGAGAAAVRAALAAAGRLGEHHVVVLGHPEYYPRFGFGRASAHGIRLSIDVPDEALMVLTLDAAHPLPAGTVRYAAPFGI”, the protein production was “failed”.

In the case of “MKRKSLKSFIYVSALLVFLSGFVGVSLFVKSEVVEATTIGDDYPVKWKNLPLGGAIDDWRMYTRYCTSFVAYRLSTANNFELPSGFGNADRWGTEAMARGYKVDKNPKVGSVAWWTSTHVAWVAEVSGDNVKVEEYNYGFDGKYNTRWINKNSANGYIHFKDMPQTPVGWYNNGHYDYYYYADGTKAIGLTWVGTKRYNFDKNGAMYKNAWTNSDKYSYYSTSDGSLAVGLTWVGTKRYNFDKNGAMYKNAWTNSDKYSYYSTSDGSLAVGLTWVGTKRYNFDKNGAMYKNAWTNSDKYSYYSTSDGSLAVGHQQIGENKYIFDKNGALYKNMWVDLDGNRYYSKEDGALAIGEQIIDGITYMFDESGKLVNNLEHHHHHH”, the protein production is reported as “not failed”.

In the case of “MKFQLYIQPKLDILQGNIVEYEILLRDDSEVPRFPLSELEAVLADEELYLTFCEWFSDAFFDVLKKYPNDRFAINIAPQQLFYMETLHMLDKLRSESHRITIEMTEDIFDVPAHKRHLNADDKDAFILNKIKIIHGLGYHVAVDDVGCGLNSLERVLSYLPYIIELKFSLIHFNNIDLEDLLLFIKAWANFAHKNNLDFVVEGIETKETMAILESHGVSIFQGYLVNKPFPV”, the protein production is reported as “failed”.

With “DLAPSRVESLTLIMTSSGAQGLPMPNAALLQLLARRGAPDREVALEQQADLLAALGSPQVKDDREQLLHQAAVSYDRAFNPEGVKRQIMAILAEPSRVELLNRLRLPVLVVHGTADPLLPVMHGVHVAAHIQGSQLRLIPGLAHRFQEAFKAPLLGAVLPYLKA” the protein production was “failed”.

For “MNPPSGPRVPPSPTQEPSCMATPAPPSWWDSSQSSISSLGRLPSISPTAPGTWAAAWVPLPTVDVPDHAHYTLGTVILLVGLTGMLGNLTVIYTFCRSRSLRTPANMFIINLAVSDFLMSFTQAPVFFTSSLYKQWLFGETGCEFYAFCGALFGISSMITLTAIALDRYLVITRPLATFGVASKRRAAFVLLGVWLYALAWSLPPFFGWSAYVPEGLLTSCSWDYMSFTPAVRAYTMLLCCFVFFLPLLIIIYCYIFIFRAIRETGRALQTFGACKGNGESLWQRQRLQSECKMAKIMLLVILLFVLSWAPYSAVALVAFAGYAHVLTPYMSSVPAVIAKASAIHNPIIYAITHPKYRVAIAQHLPCLGVLLGVSRRHSRPYPSYRSTHRSTLTSHTSNLSWISIRRRQESLGSESEVGWTHMEAAAVWGAAQQANGRSLYGQGLEDLEAKAPPRPQGHEAETPGKTKGLIPSQDPRM”, the protein production was “failed”.

In the case of “MTTLGIVSDTHGYFHPNLADDLSGVDRILHAGDVGDPAILDGLEAVAPVTAVWGNIDDASLRRRLAEHERFTVAGLDVWMTHIAGRPGRWQDGMGTKLEATPPDVLVCGHSHILQVERVAALDDMLYVNPGAAGKQGFHQTKTCLRLAVEDGRATEAAVVHLDPDASPAQAPDP”, the protein production is reported as “failed”.

For “MVVANDLSSKILPRVLIVSRRTLRKNKYVDFVGEYHLDLIVSSGAVPVIVPRVNGIHSMLQSFEPIHGVLLCEGEDVDPSLYADDELSDLSPEDMEEIKKAHAEDMTIDREKDSIELTLARLCLERNIPFLGICRGSQILNVAAGGTLYQDIDKELGTTMTTTNHIDYDNYDGHRHEARIVEETPLHKLFEEMEIMVNSYHHQGVKRLAQRFVPMAYAPDGLIEGFYDPNRYDPKEGQFLMGLQFHPERMRLPGSDEFDYPGCALVYQEFVKAVIAFQKKQVNATQVEMKRKTTTLVKSFSQAEFLEVRDSFVLHTYRLYVLPLNIGFSDMAE”, the protein production was “failed”.

In the case of “MLDSAQLIFDLQKVNTTSKRISGCLDTTAITKEITEALIHDFHCVFARIWLTEPDGASLKLVASSGLHTSTNGSFARVPMGAYKVGKIAQSCIPFLSNHLANETWVKDRDWAIANNIRGFAGYPLVGHDRVIGVLAVFSEAPFVAEFLEVLQVLCMAVAIAIDAVRQLQSETNTINTTQFLDDQIP”, the protein production is reported as “failed”.

In the case of “MKTPTFGKREETLTYQTRYAAYIIVSKPENNTMVLVQAPNGAYFLPGGEIEGTETKEEAIHREVLEELGISVEIGCYLGEADEYFYSNHRQTAYYNPGYFYVANTWRQLSEPLERTNTLHWVAPEEAVRLLKRGSHRWAVEKWLAAAS”, the protein production is reported as “not failed”.

In the case of “MIQQRANFDWMLKELADGVPGVHQIVVLSADGLRIARYGGDPDAADRVAAACAGLQSLAGAVATEIPHSDGKMRMVIIEMDGAYFYMMAAGPNAYLAVLSDVTAEAGLMSNRMRDLVVRIGAHLTSPPRRNGQTV”, the protein production is reported as “failed”.

With “MTVGTYAELASVFAALSDETRWEILTELGRADQSASSLATRLPVSRQAIAKHLNALQACGLVESVKVGREIRYRALGAELNKTARTLERIGAEWDRRLAAIKQIAESMEE” the protein production was “not failed”.

In the case of “VGGFTWDLSANLSSVANKIISLPYNGIENNRVGGYEVAVGKGTNATKWIAGRQEGGKLGEMVAYKQNHIFKSWDDVKEHANMMIDEVANLYGPGLASEYAGKEGWKPIEPGDVCWEDINGDNKINGLDREVVGNIFPKVTGGFSSTLSWKGISLYARFDYALGHTLYNDLAARTLGQYQGAFNIITEVKDMWSEDNPNSDLPAFYYADQLAKKNITRSNNASASRHNNSSRLYEKADYLALRELTLSWDLPKAWTSKAFIQNASVYVTGQNLFYVTGYTGTSPEPVLTNSDNNENLYGVDQGRYPTPRTVLFGLSVTF”, the protein production is reported as “failed”.

With “MRAAALAGAAGVVLCLLGGIGGAVAALSLWLAQPAFALAVSWARGTRAVPGQPRAIAQALPPLLAIWGVGLLALAALISWPLTALRDSGSLAAALALSVAVSAALLGLWRTWPLWGEVERDGGALAPRWQALAAQELHAWRGLLAAALVLAMCTLAVVLAWPGWLSGGLRWGLAVAACVLLPVAHLLLQRTPAPMRSDVPQTRQAADFFSEAAAEPRPLEPVAQHQLVPELFEAARSGRVDRALQLLEAGADPQALPLPEWRDQRSLPALAAVLPDLRLLRELIVRRVDVNQPHRGMTPLLAATRDSWHGRPDAVMTLLANGADPRASDNDGNTPLHHAVRSSDPGVAALLHDAAAELDALNNEGHSPLAMACQVGNWRLAKFLLERGAQSEPEGGAPVLLAAAGTEEDDPAGVQLLLKHKARVDARDRQRRSALHEAALAGHGDIVEALLSAGANLEARDLLGRTPWLDAARQARSAVLERLVARKADVLAIDGDGRNALMLACAADNVSPALIRRLLDLQVPADSVDAHGRRAVDVAAEAGRWAIVQLLDPAYPLPAAVSDAQGDTPGAAVLPDRPPLVLLREGLQLGQRDGLVALARLCAPDELGGLLHDAHLALNAEAVDWLLRHGADAEVRDACGDVPMFALLSRGVEAVPALQALLRHGVSPAGAGGLTRLLSACVQHDAASRGLEQFALELLERGADPFAPSAAGDPPLSLAVRLGWLRLQHWLLEHGVDREARDSHGMTALHLATALGRDASLKLLVKQGASPEARAADGQTPLGVALSIGRRDLADWLDWRIWSLPRRTLREADVPAAAMTGDTDAVRRLIDLGLAVDAVDAQGCTALLRAAGGGHLGVVTHLLGRGADPQRAANSGATPLSAAVSMRQTEIVAALLHAGAQIEHRLPGGVTVLMLACALGLPDIVARLLTAAADVHATDNQGLAPLHCAALYGFTARDKNRLLALLDTLLLAGADPDYLAGGRVSPLLLLLGARAEPGTSCDEQVVLAGVERLLDEDVSLDVADQRGFGPLHLAALHGLPLLVQRLLRAGADADRRDALNRTPREIAIMRGFIDVAGQFEPALPGVSSMARFLREGR” the protein production was “failed”.

For “FYTPKAVVQLVVELIDPRPGHSVYDPTCGSGGMLVESAHHVSGLPDGTLMGKPNVLLYGQEKNLGTWAIAKLNLYLHNMHASIERGDTLVEPKHLDGDYLKTFDRVIANPPFSAKSWWTPLELSNENEQENGKKVKAPNYKQVSDPYGRLVYGVPPRGYADLAFAQHMLASLKADGRMGVILPHGVLFRSGEEGKIREGLLFGTGAASGNQPGDVIEAIVGLPSALFYNTGIPACVLILNKQKPSALKDKVIIIDGSRDYLEGKAQNSLHAEDILRIVSTH”, the protein production was “failed”.

With “MVRVLSAGPELAFRSGDVVAPARTHPLVAAAPSCPMTAAAPRERADRWPRREDLFAIAYYLAAAAVLAWAGYAAWRIGVVLAGGALQQVGVRSCRQRDASRCVNATFDRIALYVVLGQASFFLTTALAAAVTGGEQSPLILPFLGSYFVAVSVVGDRVATRGLLAATAFGAAVLALLPDAVAGPALPALQRGVLTVVSVLGVGALLAPAHAETRRKRDQVARARSEMVSDALSRAQGLEQVGAKVAHELKNPLTGVKALVQLGLRNPAEAASHERLEVVDREVTRMQEIIQNYLSFNRPLQSVNPRQVALGPLVSDTMLVLSARADEARVRLYARGDASLEADPRRLKEALLNLVANAIEATPAGGEVVVEARELSGDEVELVVRDTGRGMPPETLRRIGTPFFTTRDDGTGLGVVLARAVIVQHGGTLRYESEPGSGTKVLVTLPRAAKRSGDVARAAGG” the protein production was “failed”.

With “IHHLPPVKAPLQTKKKIMKHCFLCGKKTGLATSFECRCGNNFCASHRYAEAHGCNYDYKSAGRRYLEEANPV” the protein production was “not failed”.

For “THGVVIIDVTKNENKVIYVNRAFERITGYGEQHALGKGLLTLLGSNLEEVNHKRIELAIRESKEETIEMESIKRNGEFYWCEISVAPVKDSF”, the protein production was “failed”.

With “MKCIESLGKTVDEAVKKALSELKVTEDKVEIKVIDEGSKGLLNIIGKREAKVKVTLKTDYIDEVRTFLRKVFEDMNLVIEIKIKEIGNDLFVNLFGKNIGLLIGYRGETLDSLQYLVNLVANKNHADGKYKRVILDTENYRAKREETLKRLALKISKRVKEEKSPFKLEPMNPYERRVIHSALQNDKYVRTYSEGEEPHRRVVVELKKS” the protein production was “not failed”.

In the case of “MQESVVRVDYDSLETCKNFKPSVGTELIVLEKDIAHARFKGNESMVYEENFVHAGFVLIACNYAALCALNKRHSVVVSNNINFYAPLELNQEALIKAQVIQDGVKKAEIKIEAFVLDIQVLEGMIEIVVFDKKPFKFNFKEE”, the protein production is reported as “failed”.
